Experimental data published in patent EP1772519A1.
Values joined by “and” are separate entries in the source; they are usually repeats but may differ in a detail not shown here. Identical values can stand only once.

Target: recombinant RB47 (r-RB47), containing only the four RNA recognition motif domains, histidine tag fus (Chlamydomonas reinhardtii)
Experiment: cell-based or functional assay

For “recombinant RB60 (r-RB60), histidine tag fusion expressed in E. coli (enzyme)”, the RNA binding activity of r-RB47 (gel mobility-shift assay) after incubation with GSSG and r-RB60 was 5 fold and 6 fold.
